Legend:
[1] = test system: experimentelle Tumoren und Xenotransplantate; assay: Concentration of the radiolabelled agents in experimental tumours and human xenografts; type: in vivo, Ratte; Nacktmaus; settings: 300 µC = 11,1 MBq administered; all tumour models tested (Beispiel 2 compound only in Walker Carcinosarcom, Osteosarcom, Ovarialcarcinom O-342)
Text: Die Konzentrierung dieser Mittel wurde an folgenden experimentellen Tumoren und an folgenden Tiermodellen geprüft:
Alle diese experimentellen Tumoren und Xenotransplantate wurden mit den Verbindungen a und c gemäß Beispiel 1 (also 1a und 1c) und drei davon, nämlich das Walker Carcinosarcom, das Osteosarcom und das Ovarialcarcinom (O-342) auch mit dem Diphosphat gemäß Beispiel 2 untersucht.
(§1) Bei allen diesen Anwendungsversuchen wurden immer 300 µC = 11,1 MBq verabreicht Es zeigten sich mit den eingesetzten Mitteln, nämlich 1a und 1c und die Verbindung aus Beispiel 2 eine Konzentration von mindestens 30% des Mittels an der gewünschten Stelle, also am Tumor. Die beigefügte Fig. 4 zeigt das Bild einer BDIX-Ratte mit Ovarialcarcinom 42 h nach Injektion, die mit ^131J-HOPAD-CMPEG, also ^131J-Hydroxyphenyl-1-aminome-than-1,1-diphosphonat-Cyanurchlorid aktiviertes Polyethylenglykol (n=ca. 100 bis 110) in einer Menge von 300 µC behandelt war. Das Bild zeigt, daß ganz unten, im Tumor ca. 30+/-2% des Mittels konzentriert sind, während in der Mitte die Leber ca. 10% zeigt und die Schilddrüse, die oberhalb der Leber sichtbar ist, weit weniger als 2% des Mittels aufgenommen hat Diese %-Angaben beziehen sich auf die Gesamtmenge an die mit radiojodmarkierten Mittel im Gesamtkörper der Ratte.

[2] = test system: Ovarialcarcinom; assay: Whole-body distribution of radioiodine activity in tumour-bearing rat (Fig. 4, Fig. 5); type: in vivo, BDIX-Ratte
Experimental: as §1
Die beigefügte Fig. 5 zeigt die Messung einer mit ^131I-TOP-(CMPEG)4 behandelten BD IX Ratte (auch hier Ovarialcarcinom). Es zeigt sich ein ähnliches Ergebnis wie das von Fig. 4.
Von der gesamten Körperaktivität an radioaktivem Jod finden sich nach 150 h etwa 23% im Tumor, etwa 12% in der Leber, etwa 5% im Blut und etwa 3-4% jeweils in den Muskeln und in der Schilddrüse. Der Rest ist natürlich, wie auch bei der Aufnahme von Fig. 4, über den restlichen Körper verteilt.

[3] = BD IX Ratte with Ovarialcarcinom, after 150 h, % of total body activity of radioactive iodine (Fig. 5)
[4] = BDIX-Ratte with Ovarialcarcinom, 42 h after injection, 300 µC, % of total labelled agent in whole body (Fig. 4)

In the case of “^111-In-Tetra-(hydroxyphenoxy)-phthalocyanin-(CMPEG)4 [1c]”, the “Konzentration des Mittels an der gewünschten Stelle, also am Tumor” value [1] is reported as at least 30%.

For “^131I-Tetra(hydroxyphenyl)-porphin-(CMPEG)4 [1a]”, the “Konzentration des Mittels an der gewünschten Stelle, also am Tumor” value [1] was at least 30%, the “im Blut” value [2, 3] was about 5% and the “im Tumor” value [2, 3] was about 23%. For the same substance, the “in den Muskeln” value [2, 3] was 3-4%, the “in der Leber” value [2, 3] was about 12% and the “in der Schilddrüse” value [2, 3] was 3-4%.

“^131J-Hydroxyphenyl-1-aminome-than-1,1-diphosphonat-Cyanurchlorid aktiviertes Polyethylenglykol (n=ca. 100 bis 110) [Beispiel 2]” was tested, and the “Konzentration des Mittels an der gewünschten Stelle, also am Tumor” value [1] was at least 30%, the Leber [2, 4] was “ca. 10%” and the Schilddrüse [2, 4] was under 2%. For the same substance, the “im Tumor konzentriert” value [2, 4] was “ca. 30+/-2%”.
